Biological target: T1, human Flt3 (hFlt3) (Homo sapiens, UniProt P36888)
T1 construct: expressed in transfected cells; host or cells: NCP19 cells (HeLa-derived knock-in clone)
T1 sequence (P36888 27-993): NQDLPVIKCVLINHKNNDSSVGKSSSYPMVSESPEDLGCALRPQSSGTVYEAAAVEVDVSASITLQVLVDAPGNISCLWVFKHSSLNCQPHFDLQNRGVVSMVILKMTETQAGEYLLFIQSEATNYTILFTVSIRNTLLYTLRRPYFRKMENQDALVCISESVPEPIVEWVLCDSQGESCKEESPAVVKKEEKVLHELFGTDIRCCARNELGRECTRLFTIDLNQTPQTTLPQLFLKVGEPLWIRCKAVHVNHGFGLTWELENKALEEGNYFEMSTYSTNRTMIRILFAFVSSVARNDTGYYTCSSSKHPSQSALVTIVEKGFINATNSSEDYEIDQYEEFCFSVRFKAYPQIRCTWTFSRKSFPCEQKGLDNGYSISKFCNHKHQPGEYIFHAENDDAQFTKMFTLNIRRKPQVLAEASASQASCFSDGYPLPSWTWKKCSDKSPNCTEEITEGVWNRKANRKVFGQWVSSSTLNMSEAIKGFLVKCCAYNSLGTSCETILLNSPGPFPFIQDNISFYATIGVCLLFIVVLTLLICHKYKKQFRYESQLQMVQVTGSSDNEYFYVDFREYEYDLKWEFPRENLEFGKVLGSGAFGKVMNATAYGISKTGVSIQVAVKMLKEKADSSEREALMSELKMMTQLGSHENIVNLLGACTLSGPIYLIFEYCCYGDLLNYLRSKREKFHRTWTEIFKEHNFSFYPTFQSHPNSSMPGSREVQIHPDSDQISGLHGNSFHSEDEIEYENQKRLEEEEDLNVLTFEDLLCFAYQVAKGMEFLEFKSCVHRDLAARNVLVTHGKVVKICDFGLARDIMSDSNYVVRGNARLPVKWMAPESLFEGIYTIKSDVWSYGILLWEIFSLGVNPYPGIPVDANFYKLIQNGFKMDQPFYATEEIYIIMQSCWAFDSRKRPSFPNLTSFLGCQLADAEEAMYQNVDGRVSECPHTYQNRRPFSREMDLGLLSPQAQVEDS
Assay: NCP19 knock-in reporter cell assay (UAS-luciferase) for hFlt3 activation
Assay type: cell-based
Details: NCP19 cells transfected with hFlt3; ligand 30, 3, 0.3, 0.03, 0 ng/ml; stimulation for 6 hours; FIG. 12
Description: • Used cells: NCP19 • Used plasmids: • (1) a plasmid that expresses hFlt3 (an hFlt3 expression plasmid); and • (2) UAS-luciferase. • Day 1: NCP19 cells were seeded on a 96-well plate at a density of 24000 cells/well. • Day 2: Within 24 hours after the seeding on the 96-well plate, 90 ng of DNA per well (a plasmid cocktail consisting of 60 ng of hFlt3+30 ng of UAS-luciferase) was transfected into the cells according to a lipofection method. • Day 3: Twenty-four hours after the transfection, the cells were stimulated by a ligand (Flt3-ligand: at concentrations of 30, 3, 0.3, 0.03, and 0 ng/ml). After the stimulation for 6 hours, a culture supernatant was discarded, and a substrate for luciferase was added, and then, luminescence signals were measured using a plate reader.

B1: Flt3-ligand: ligand used to stimulate the receptor tyrosine kinase hFlt3 (protein)
chain: TQDCSFQHSPISSDFAVKIRELSDYLLQDYPVTVASNLQDEELCGGLWRLVLAQRWMERLKTVAGSKMQGLLERVNTEIHFVTKCAFQPPPSCLRFVQTNISRLLQETSEQLVALKPWITRQNFSRCLELQCQPDSSTLPPPWSPRPLEATAPTA
  activation of hFlt3, luminescence of luciferase: detected as the luminescence of luciferase

From patent US12247244B2, “Membrane protein activity measurement method” (THE UNIVERSITY OF TOKYO, priority 2018, dated 2025)
